Legend:
p38 = p38 (Homo sapiens, UniProt Q16539); assay: Co-immunoprecipitation of JIP-1 with p38 (specificity control); assay type: binding; details: control experiment
p38 MAP kinase [1] = biological target: T1, p38 MAP kinase (Homo sapiens, UniProt Q16539); assay: GST-fusion pull-down from cell lysates, Flag immunoblot: p38 MAP kinase; assay type: binding; details: control experiment, Flag-p38 lysate
T1 construct: expressed in transfected cells
Procedure: To test whether JIP-1 binding to JNK is also isoform-dependent, a binding assay was utilized. Cell lysates (1 ml in TLB) containing JNK1, JNK2, or p38 MAP kinase, each tagged with the Flag epitope, were incubated with 5 μg GST-fusion proteins pre-bound to 10 μl glutathione-Sepharose. The GST fusion proteins used contain residues 127-202 (SEQ ID NO:15), 203-281 (SEQ ID NO:16), 164-240 (SEQ ID NO:17), or 127-281 (SEQ ID NO:4) of JIP-1. The GST-ATF2 fusion protein contains residues 1-109 of ATF2, and the GST-Jun fusion protein contains residues 1-79 of c-Jun. After incubation for one hour at 4° C. and three washes with TLB, bound proteins were detected by protein immunoblot analysis with the M2 monoclonal antibody, which is specific for the Flag epitope. Dérijard, et al., supra; Sluss et al., supra; Gupta et al., supra. […] This finding is consistent with the results of previous studies. In contrast, when GST-JIP-1 fusion proteins containing residues 127-202 or 127-281 of JIP-1 were tested in the assay, these proteins bound both JNK1 and JNK2.

[2] = tested on: c-Jun transcriptional activity; assay: GAL4 luciferase reporter assay in CHO cells: GAL4-c-Jun; assay type: cell-based, Chinese hamster; details: FIG. 4B
Procedure: (§1) In these experiments, CHO cells were cotransfected with constructs encoding the transcription factors and JIP-1 using previously described methods. Dérijard et al., supra; Sluss et al., supra; Gupta et al., supra. A luciferase reporter plasmid was used to monitor the expression of the transcription factors. Transfection efficiency was determined using a β-galactosidase expression vector. Constructs used in these experiments included GAL4 fusions with the c-myc, Sp1 and VP16 activation domains (described in Whitmarsh et al., Science, 269:403 (1995); Davis, Science, 269:403 (1995); Gille et al., Curr. Biol., 5:1191 (1995)). […]
(§2) Transfected cells were activated by treatment with 10% (v/v) fetal calf serum, and luciferase and β-galactosidase activities were measured in cell lysates at 48 hours post-transfection. The data are presented as the ratio of luciferase activity (light units) to β-galactosidase activity (OD units) measured in the cell extracts (mean±SEM (n=3)), and are normalized to the luciferase activity detected in the absence of JBD (FIGS. 4A and 4B) or ATF2 (FIG. 4C).

[3] = tested on: ATF2 transcriptional activity; assay: GAL4 luciferase reporter assay in CHO cells: GAL4-ATF2; assay type: cell-based, Chinese hamster
Procedure: In these experiments, CHO cells were cotransfected with constructs encoding the transcription factors and JIP-1 using previously described methods. Dérijard et al., supra; Sluss et al., supra; Gupta et al., supra. A luciferase reporter plasmid was used to monitor the expression of the transcription factors. Transfection efficiency was determined using a β-galactosidase expression vector. Constructs used in these experiments included GAL4 fusions with the c-myc, Sp1 and VP16 activation domains (described in Whitmarsh et al., Science, 269:403 (1995); Davis, Science, 269:403 (1995); Gille et al., Curr. Biol., 5:1191 (1995)). Other constructs used were GAL4-c-Jun, in which GAL4 is fused to c-Jun; GAL4-c-Jun (S63A/S73A), in which GAL4 is fused to a mutant c-Jun in which the serines at positions 63 and 73 have been changed to alanines; GAL4-ATF2, in which GAL4 is fused to wild type ATF2 (ATF2(Thr-69, 71)); GAL4-ATF2 (T69A/T71A) (ATF2(Ala-69/71)), in which GAL4 has been fused to a mutant ATF2 in which the […] at positions 69 and 71 have been changed to alanines; GAL4-Elk-1, in which GAL4 has been fused to Elk-1; and GAL4-Elk-1 (S383A), in which GAL4 has been fused to a mutant Elk-1 in which the serine at position 383 has been changed to an alanine. Gupta et al., EMBO J, 15:2760-2770 (1996); Raingeaud et al., Mol. Cell. Biol., 16:1247-1255 (1996); Whitmarsh et al. Science, 269:403-407 (1995).
Insertional overlapping PCR, described in detail in Ho, supra, was used to construct expression vectors for the JNK binding domain (JBD; amino acid residues 127-281) of JIP-1 and for a mutant JIP-1 lacking the SH3 (amino acid residues 491-540) domain.
as §2

[4] = tested on: Elk-1 transcriptional activity; assay: GAL4 luciferase reporter assay in CHO cells: GAL4-Elk-1; assay type: cell-based, Chinese hamster; details: FIG. 4B
Procedure: as §1, §2

JNK = biological target: T2, JNK (Homo sapiens, UniProt P45983); assay: Immunofluorescence: subcellular distribution of JNK on JIP-1 expression; assay type: cell-based; details: HA-JNK1 with Flag-JIP-1; control and UV-irradiated cells
T2 construct: expressed in transfected cells; host or cells: COS-1 cells (co-immunoprecipitation)
T2 sequence (P45983 1-384 isoform P45983-2): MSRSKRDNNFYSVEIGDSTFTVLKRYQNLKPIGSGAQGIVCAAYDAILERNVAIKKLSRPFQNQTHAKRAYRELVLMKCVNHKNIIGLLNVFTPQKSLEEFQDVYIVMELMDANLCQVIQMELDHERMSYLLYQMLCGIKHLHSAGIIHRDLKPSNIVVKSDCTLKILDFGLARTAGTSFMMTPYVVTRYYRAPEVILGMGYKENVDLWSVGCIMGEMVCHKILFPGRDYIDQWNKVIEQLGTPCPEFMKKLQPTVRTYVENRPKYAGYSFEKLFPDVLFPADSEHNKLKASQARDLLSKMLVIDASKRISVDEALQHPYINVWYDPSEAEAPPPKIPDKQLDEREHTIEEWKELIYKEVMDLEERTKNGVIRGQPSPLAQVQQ
Procedure: The subcellular distribution of JIP-1 was analyzed by performing indirect immunofluorescence on JIP-1-expressing cells. In these experiments, the cells were grown on coverslips, fixed with 4% paraformaldehyde, permeabilized with 0.25% Triton X-100, and processed for immunofluorescence microscopy. JIP-1 was detected in the cytoplasm, but not the nucleus, of control and UV-irradiated cells. In contrast, JNK is detected in both the cytoplasmic and nuclear compartments.
It is likely that it is JNK in the nucleus which is involved in the regulation of gene expression. Since JIP-1 is cytoplasmic, it was unclear how it could inhibit the nuclear function of JNK. To investigate the mechanism of JIP-1 action, the distribution of JNK was examined in cells that had been transfected with either hemagglutinin (HA)-tagged JNK1 (HA-JNK1) alone, or HA-JNK1 and Flag-tagged JIP-1 (Flag-JIP-1). In these experiments, the cells were exposed to a potent JNK activator (40 J/m^2 UV-C) for one hour prior to processing for immunofluorescence. The primary antibodies used were rabbit anti-HA (12CA5; Boehringer Mannheim), which recognizes HA-tagged JNK1; and mouse monoclonal anti-Flag (M2; IBI-Kodak), which recognizes Flag-tagged JIP-1. The secondary antibodies were Texas Red-goat anti-mouse Ig and fluoroscein isothiocyanate-conjugated donkey anti-rabbit Ig (Jackson Immunoresearch). […]

p38 MAP kinase [5] = biological target: T1, p38 MAP kinase; assay: Immunofluorescence: subcellular distribution of p38 MAP kinase on JIP-1 expression; assay type: cell-based

T1 sequence (Q16539 whole entry, the tested form may be a part): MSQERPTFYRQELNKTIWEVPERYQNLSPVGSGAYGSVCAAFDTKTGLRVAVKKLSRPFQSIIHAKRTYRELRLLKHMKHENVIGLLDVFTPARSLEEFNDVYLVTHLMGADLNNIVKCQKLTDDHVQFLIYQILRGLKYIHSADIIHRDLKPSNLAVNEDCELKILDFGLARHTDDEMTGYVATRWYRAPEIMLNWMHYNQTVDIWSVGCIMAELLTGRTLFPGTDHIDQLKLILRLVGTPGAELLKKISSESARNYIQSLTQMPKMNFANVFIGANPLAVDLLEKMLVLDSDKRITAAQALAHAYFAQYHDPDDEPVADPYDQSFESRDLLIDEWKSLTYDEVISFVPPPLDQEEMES
Chain of p38 (Q16539 whole entry, the tested form may be a part): as above

B1: JIP-1: 660 amino acid murine cytoplasmic protein that specifically binds JNK (protein)
chain: MAERESGLGGGAASPPAASPFLGLHIASPPNFRLTHDISLEEFEDEDLSEITDECGISLQCKDTLSLRPPRAGLLSAGSSGSAGSRLQAEMLQMDLIDAAGDTPGAEDDEEEEDDELAAQRPGVGPPKAESNQDPAPRSQGQGPGTGSGDTYRPKRPTTLNLFPQVPRSQDTLNNNSLGKKHSWQDRVSRSSSPLKTGEQTPPHEHICLSDELPPQGSPVPTQDRGTSTDSPCRRSAATQMAPPSGPPATAPGGRGHSHRDRIHYQADVRLEATEEIYLTPVQRPPDPAEPTSTFMPPTESRMSVSSDPDPAAYSVTAGRPHPSISEEDEGFDCLSSPERAEPPGGGWRGSLGEPPPPPRASLSSDTSALSYDSVKYTLVVDEHAQLELVSLRPCFGDYSDESDSATVYDNCASASSPYESAIGEEYEEAPQPRPPTCLSEDSTPDEPDVHFSKKFLNVFMSGRSRSSSAESFGLFSCVINGEEHEQTHRAIFRFVPRHEDELELEVDDPLLVELQAEDYWYEAYNMRTGARGVFPAYYAIEVTKEPEHMAALAKNSCVLEISVRGVKIGVKADDALEAKGNKCSHFFQLKNISFCGYHPKNNKYFGFITKHPADHRFACHVFVSEDSTKALAESVGRAFQQFYKQFVEYTCPTEDIYLE
p38
  co-immunoprecipitation of JIP-1 with p38: did not co-immunoprecipitate
p38 MAP kinase [1]
  binding to p38 MAP kinase: did not bind
[2]; GAL4-c-Jun (S63A/S73A)
  basal transcriptional activity of c-Jun mutated at JNK phosphorylation sites: not markedly inhibited
[2]; wild type GAL4-c-Jun, CHO cells
  c-Jun transcriptional activity: Significant inhibition
[3]; GAL4-ATF2 (T69A/T71A), FIG. 4B
  basal transcriptional activity of ATF2 mutated at JNK phosphorylation sites: not markedly inhibited
[3]; GAL4-ATF2 reporter, CHO cells, FIG. 4C
  JNK-regulated gene expression: inhibition
[3]; wild type GAL4-ATF2, CHO cells, FIG. 4B
  ATF2 transcriptional activity: Significant inhibition
[4]; GAL4-Elk-1 (S383A)
  basal transcriptional activity of Elk-1 mutated at JNK phosphorylation sites: not markedly inhibited
[4]; wild type GAL4-Elk-1, CHO cells
  Elk-1 transcriptional activity: partial inhibition
JNK
  amount of nuclear JNK: reduces
p38 MAP kinase [5]
  subcellular distribution of p38 MAP kinase: no significant effect
